The values that follow come from patent US20250215104A1 (WALDEN BIOSCIENCES, published 2025).

The chains are these.
T1: mouse cell surface uPAR (muPAR) (mouse, UniProt P35456 24-298)
T1 construct: whole, on cells; also called mouse uPAR
T1 sequence (looked up): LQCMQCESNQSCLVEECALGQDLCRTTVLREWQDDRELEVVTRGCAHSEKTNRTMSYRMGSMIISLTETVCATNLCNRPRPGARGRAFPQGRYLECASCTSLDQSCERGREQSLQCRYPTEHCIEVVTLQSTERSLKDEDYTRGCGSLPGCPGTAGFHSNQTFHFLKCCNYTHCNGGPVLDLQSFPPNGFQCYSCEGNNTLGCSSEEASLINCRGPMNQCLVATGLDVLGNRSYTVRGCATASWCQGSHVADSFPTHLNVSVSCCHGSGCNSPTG

B1: suPAR_DB05_E01 (scFv, V domains shown)
VH: QVQLVQSGAEVKKPGASVKVSCKASGYTFTNYYMHWVRQAPGQGLEWMGWIDHENGNTIYDQKFQGRVTMTRDTSTSTVYMELSSLRSEDTAVYYCARGYDVDWFVYWGQGTLVTVSS
VL: DIQMTQSPSSLSASVGDRVTITCRARSSVSYMYWYQQKPGKAPKLLIYRTSNLASGVPSRFSGSGSGTDFTLTISSLQPEDFATYYCQQYHSYPPTFGGGTKVEIK
notes: Screened as scFv
B2: suPAR_DB05_E05 (scFv, V domains shown)
VH: B1 VH with T28N, E54S, N57S
VL: B1 VL with R24S
notes: Screened as scFv
B3: suPAR_DB05_E04 (scFv, V domains shown)
VH: B1 VH with T28S, N31S, Y32N
VL: B1 VL with R24S
notes: Screened as scFv
B4: suPAR_DB05_D12 (scFv, V domains shown)
VH: B1 VH with Y27F, M34F, H53P
VL: B1 VL with R24S
notes: Screened as scFv
B5: suPAR_DB05_E02 (scFv, V domains shown)
VH: B1 VH with N31S, H53L, E54N, N55S, N57G, T58A, I59K, D61A, K63R
VL: B1 VL with R24S
notes: Screened as scFv
B6: suPAR_DB05_E03 (scFv, V domains shown)
VH: B1 VH with Y27H, F29L, T30N, N31S, M34I, H53P, E54S, N55G
VL: B1 VL with R24S
notes: Screened as scFv
B7: WAb0008 (antibody, IgG2a, V domains shown)
VH: B1 VH with N31S, Y32H, M34I, H35Q, Y100T
VL: B1 VL with R24S
notes: The listing names these entries 'WAb CD0008'; WAb0006 VH + mIgG2a Fc with L235A and L236A; WAb0006 VL + mouse kappa constant; also called WAb008; mouse IgG2a version of WAb0006
B8: WAb0006 (antibody, human IgG1, V domains shown)
VH: B1 VH with N31S, Y32H, M34I, H35Q, Y100T
VL: DIQMTQSPSSLSASVGDRVTITCSARSSVSYMYWYQQKPGKAPKLLIYRTSNLASGVPSRFSGSGSGTDFTLTISSLQPEDFATYYCQQYHSYPPTFGGGTKVEIKR
notes: The listing names these entries 'WAb CD0006'; Fc region identical to WAb0014 (human IgG1, L235A, L236A); human kappa; also called original backup candidate
B9: WAb0014 (antibody)
heavy: not shown
light: DIQMTQSPSSLSASVGDRVTITCSARQSVSYMYWYQQKPGKAPKLLIYRTSNLASGVPSRFSGSGSGTDFTLTISSLQPEDFATYYCQQYHSYPPTFGGGTKVEIKRTVAAPSVFIFPPSDEQLKSGTASVVCLLNNFYPREAKVQWKVDNALQSGNSQESVTEQDSKDSTYSLSSTLTLSKADYEKHKVYACEVTHQGLSSPVTKSFNRGEC
notes: also called original candidate; WAL0921 without P330G
B10: WAb0001 (antibody, V domains shown)
VH: QVQLVQSGAEVKKPGASVKVSCKASGYNIKDYYIHWVRQAPGQGLEWMGWISPDSGVTNYAQKFQGRVTMTRDTSTSTVYMELSSLRSEDTAVYYCARGYDVDWFVYWGQGTLVTVSS
VL: B1 VL with R24S, S27Q
notes: constant regions not tied to this antibody; also called WAb CD0001
B11: WAb0009 (antibody, V domains shown)
VH: B1 VH with N31G, Y32H, M34V
VL: B1 VL with R24S
notes: constant regions not tied to this antibody; also called WAb CD0009
B12: WAb0002 (antibody, V domains shown)
VH: B10 VH with D54S
VL: B1 VL with R24S, S27Q
notes: constant regions not tied to this antibody; also called WAb CD0002
B13: WAb0008 (antibody, V domains shown)
VH: B1 VH with N31S, Y32H, M34I, H35Q, Y100T
VL: B1 VL with R24S
notes: WAb0006 VL + mouse kappa constant; also called WAb CD0008; WAb008
B14: WAb0015 (antibody, V domains shown)
VH: B10 VH with N28T, I29F, K30T, D31N, V57G, N59K
VL: B1 VL with R24S
notes: constant regions not tied to this antibody; also called WAb CD0015
B15: WAb0010 (antibody, V domains shown)
VH: B1 VH with N31G, Y32N, M34V
VL: B1 VL with R24S
notes: constant regions not tied to this antibody; also called WAb CD0010
B16: WAb0020 (antibody, V domains shown)
VH: B1 VH with N31S, Y32H, M34V
VL: B1 VL with R24S
notes: constant regions not tied to this antibody; also called WAb CD0020
B17: WAb0007 (antibody, V domains shown)
VH: B1 VH with T30I, N31G, Y32S, M34V
VL: B1 VL with R24S, N52S
notes: also called WAb CD0007
B18: WAb0017 (antibody, V domains shown)
VH: B1 VH with T30S, N31A
VL: B1 VL with S27Q
notes: constant regions not tied to this antibody; also called WAb CD0017
B19: WAb0003 (antibody, V domains shown)
VH: B10 VH with Y27F, S52D, D54E, S55N, V57S, N59I, A61D, V102I
VL: B1 VL with R24S
notes: constant regions not tied to this antibody; also called WAb CD0003
B20: WAb0006 (antibody, V domains shown)
VH: B1 VH with N31S, Y32H, M34I, H35Q, Y100T
VL: B1 VL with R24S
notes: light chain is WAL0921 (human kappa) with Q27S; also called WAb CD0006; original backup candidate
B21: WAb0019 (antibody, V domains shown)
VH: B1 VH with T30S, N31S, D61A
VL: B1 VL with R24S
notes: constant regions not tied to this antibody; also called WAb CD0019
B22: WAb0016 (antibody, V domains shown)
VH: B10 VH with N28T, I29F, K30T, D31N, D54S, V57G, N59K
VL: B1 VL with R24S
notes: constant regions not tied to this antibody; also called WAb CD0016
B23: WAb0005 (antibody, V domains shown)
VH: B1 VH with T30I, N31G, Y32S, M34V
VL: B1 VL with R24S, N52S
notes: constant regions not tied to this antibody; also called WAb CD0005
B24: WAb0018 (antibody, V domains shown)
VH: B1 VH
VL: B1 VL with R24S, R26S, V29I
notes: constant regions not tied to this antibody; also called WAb CD0018
B25: WAb0004 (antibody, V domains shown)
VH: B10 VH with Y27F, S52D, D54E, V57S, N59I, A61D, V102I
VL: B1 VL with R24S
notes: constant regions not tied to this antibody; also called WAb CD0004
B26: WAb0011 (antibody, V domains shown)
VH: B1 VH with N31G, Y32S, M34V
VL: B1 VL with R24S
notes: constant regions not tied to this antibody; also called WAb CD0011
B27: WAb0012 (antibody, V domains shown)
VH: B1 VH with N31G
VL: B1 VL with R24S, S27Q, V29I
notes: constant regions not tied to this antibody; also called WAb CD0012
B28: WAb0013 (antibody, V domains shown)
VH: B1 VH with N57S, D61A
VL: B1 VL with R24S, S27Q
notes: constant regions not tied to this antibody; also called WAb CD0013

Substitutions are numbered along the chain they refer to. In names and notes the source's numbering stands.

The first assay addresses T2, human soluble urokinase plasminogen activator receptor (suPAR) (human, UniProt Q03405 23-303, limits assumed).
T2 construct: Column head says only 'human'; also called hsuPAR; human suPAR
Description: BLI (Octet) off-rate screen of scFv clones. A general note: In BLI a coated tip is dipped into the sample, and binding shifts an interference pattern.
T2 sequence (Q03405 23-303 limits assumed): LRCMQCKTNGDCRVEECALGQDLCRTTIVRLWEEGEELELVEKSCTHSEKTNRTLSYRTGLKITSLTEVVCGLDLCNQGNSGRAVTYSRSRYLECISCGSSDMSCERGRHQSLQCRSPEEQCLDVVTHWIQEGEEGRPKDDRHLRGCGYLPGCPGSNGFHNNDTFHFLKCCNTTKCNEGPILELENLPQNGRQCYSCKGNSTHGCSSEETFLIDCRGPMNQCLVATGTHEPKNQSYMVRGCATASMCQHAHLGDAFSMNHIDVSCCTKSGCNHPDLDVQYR
A word on the koff: it is the rate constant with which the complex falls apart. Low readings indicate a long-lived complex, high ones a short-lived complex. For B1, the koff was 0.00208 s⁻¹.
Still for that read-out and setting: then B2, with 0.00165 s⁻¹; and B3, with 0.00544 s⁻¹; and B4, with 0.00477 s⁻¹.
The same measure, in the same setting: then B5, with 0.00517 s⁻¹; and B6, with 0.00535 s⁻¹.

The target in another assay is T3, cynomolgus soluble urokinase plasminogen activator receptor (suPAR) (cynomolgus, UniProt Q9GK78 23-303, limits assumed).
T3 construct: Column head says only 'cynomologus'; also called cynomolgus suPAR; cynomolgus uPAR
T3 sequence (Q9GK78 23-303 limits assumed): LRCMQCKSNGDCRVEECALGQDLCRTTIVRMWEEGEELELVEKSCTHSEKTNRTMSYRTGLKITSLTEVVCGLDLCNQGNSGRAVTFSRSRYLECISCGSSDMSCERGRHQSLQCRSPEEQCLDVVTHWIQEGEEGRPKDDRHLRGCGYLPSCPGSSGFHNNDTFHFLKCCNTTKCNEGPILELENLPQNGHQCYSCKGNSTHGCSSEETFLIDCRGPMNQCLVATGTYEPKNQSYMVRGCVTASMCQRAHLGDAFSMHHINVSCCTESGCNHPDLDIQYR
Description: BLI (Octet) off-rate screen of scFv clones.
Regarding B1, the koff came out at 0.000767 s⁻¹.
On the same count and under the same terms, then B2, with 0.000298 s⁻¹.
B3: the koff came to 0.000354 s⁻¹.
In turn, B4 gave an off-rate constant (koff) of 0.000352 s⁻¹.
The same measure, in the same setting: the same measure for B5: 0.000824 s⁻¹; for B6: 0.000265 s⁻¹.

In the next assay the target is T1, mouse cell surface uPAR (muPAR). Description: flow cytometry on undifferentiated mouse podocytes, FITC secondary antibody. The protocol: Gene expression of mouse uPAR in undifferentiated mouse podocyte cells was undertaken using commercial gene specific qPCR probes for mouse and human uPAR and normalized to 18S housekeeping gene expression using manufacturers RT-qPCR protocol (Thermofisher). Separately, mouse podocytes were incubated with 100 μg/mL concentration of anti-hsuPAR and Proteintech positive control anti-mouse uPAR antibodies at 4° C. for 1 hr. After 2 cycles of wash to remove any unbound antibody, cells were incubated with 10 μg/mL of a goat-anti-human-FITC or goat-anti-mouse-FITC or goat-anti-rabbit-FITC conjugated secondary antibody for 1 hr at 4° C. After washing any unbound secondary antibody, cell suspensions for each sample was gated for single cells and population mean fluorescence intensity was recorded and analyzed on a Luminex Flowsight flow cytometer. Mean fluorescence intensity for test samples was plotted in GraphPad Prism software and compared to positive control sample data.
In general terms: Flow cytometry measures light scatter and fluorescence of single cells or particles in a stream.
With B7, the binding result is “no binding (tested: 100 µg/mL)”.
Still for that read-out and setting: the same measure for B8: “no binding (tested: 100 µg/mL)”.

In another assay the target is T4, human soluble urokinase plasminogen activator receptor (suPAR) (human, UniProt Q03405 23-303, limits assumed).
T4 construct: also called hsuPAR; human suPAR
Description: dissociation rate (kdis) on human suPAR; method not stated.
T4 sequence (Q03405 23-303 limits assumed): as the sequence (Q03405 23-303 limits assumed) above
As for B9, the koff was found to be 2.57e-07 s⁻¹.
As for B10, the dissociation rate constant (koff) came to 3.04e-07 s⁻¹.
The same measure, in the same setting: then B11, with 3.47e-07 s⁻¹; and B12, with 8.37e-05 s⁻¹.
As for B13, the off-rate (koff) was found to be 2.83e-07 s⁻¹.
Molecule B14 came in with a dissociation rate constant (koff) of 2.97e-07 s⁻¹.
With B15, the koff stood at 3.89e-07 s⁻¹.
Same read-out and setting: the same measure for B16: 3.42e-07 s⁻¹; for B17: 2.76e-07 s⁻¹; for B18: 3.63e-07 s⁻¹.
Still for that read-out and setting: then B19, with 3.57e-07 s⁻¹; and B20, with 3.39e-07 s⁻¹.
The same measure, in the same setting: then B21, with 3.43e-07 s⁻¹; and B22, with 0.000213 s⁻¹; and B23, with 3.97e-07 s⁻¹.
Take B24: the koff turned out to be 2.6e-07 s⁻¹.
Regarding B25, the koff came to 2.61e-07 s⁻¹.
Turning to B26, the koff came out at 2.36e-07 s⁻¹.
B27 registered a koff of 2.93e-07 s⁻¹.
The same measure, in the same setting: then B28, with 2.44e-07 s⁻¹.
